The values that follow come from EP4137518A1 (Inhibrx, Inc., dated 2023).

The target in assay [1] is T1, human CD47, cell surface (Raji, CCRF-CEM, Daudi cells) (human, UniProt Q08722 19-323).
T1 construct: Endogenous CD47 on human cell lines; also called cell surface CD47; endogenous (cell surface) form of CD47
The experiment in a line: flow cytometry on Raji cells; apparent KD from non-linear fit of median fluorescence intensities.

For assay [2], the target named is T1, human CD47, cell surface (Raji, …). The experiment in a line: summary of the binding and blocking assays.

B1: B6H12 (antibody, V domains shown)
VH: EVQLVESGGDLVKPGGSLKLSCAASGFTFSGYGMSWVRQTPDKRLEWVATITSGGTYTYYPDSVKGRFTISRDNAKNTLYLQIDSLKSEDTAIYFCARSLAGNAMDYWGQGTSVTVSS
VL: DIVMTQSPATLSVTPGDRVSLSCRASQTISDYLHWYQQKSHESPRLLIKFASQSISGIPSRFSGSGSGSDFTLSINSVEPEDVGVYYCQNGHGFPRTFGGGTKLEIK
For the molecule B1, in assay [1], the Kd amounted to 3.79 nM.

B2: 9E4 antibody (murine) (antibody, mouse IgG1, V domains shown)
VH: EVQLRQSGPELVKPGASVKISCKASGYSFTDYYMYWVKQSRVRSLAWIGRINPYTGATGYDQNFKDKASLIVDKSSSTAYMELRSLTSEDSAVYYCARGRNRYDGWFAYWGQGTLVTV
VL: EIQMTQTTSSLSASLGDRVTISCRASQDISNYLNWYQQKPDGTVKLLIYYTSRLHSGVPSRFSGSGSGTDYSLTISNLDQEDIATYFCQQGNALPPTFGGGTNLEIK
B2: in assay [2], the binding result is “binds”.
